Literature values in publication PMC12612446.
pKd: −log10 of the molar value.

Biological target: HER2 (Homo sapiens) (UniProt P04626)

## trastuzumab
  pKd: 9.24
